Test results as given in patent US20190315842A1 (DUKE UNIVERSITY, published 2019).
Where no end group is shown, it is not given here. The star is where a group is joined. Biotin = O=C1N[C@H]2[C@H](CS[C@H]2CCCCC(=O)*)N1

Assays:
[1] = molecular target: systemic lupus erythematosus autoantigen SSA; experiment: AtheNA Multi-Lyte ANA, Ab at 25 ug/ml
Sm (sphingomyelin) = molecular target: T1, Sm (sphingomyelin); experiment: AtheNA Multi-Lyte ANA, Ab at 25 ug/ml
T1 construct: in an ANA panel of nuclear antigens Sm is usually the Smith ribonucleoprotein antigen; Kept, but see recheck

ribonucleoprotein (RNP) = experiment: AtheNA Multi-Lyte ANA, Ab at 25 ug/ml
[2] = molecular target: T2, sclerosis autoantigen (Scl-70) (UniProt P11387 2-765, limits assumed); experiment: AtheNA Multi-Lyte ANA, Ab at 25 ug/ml
T2 sequence (looked up): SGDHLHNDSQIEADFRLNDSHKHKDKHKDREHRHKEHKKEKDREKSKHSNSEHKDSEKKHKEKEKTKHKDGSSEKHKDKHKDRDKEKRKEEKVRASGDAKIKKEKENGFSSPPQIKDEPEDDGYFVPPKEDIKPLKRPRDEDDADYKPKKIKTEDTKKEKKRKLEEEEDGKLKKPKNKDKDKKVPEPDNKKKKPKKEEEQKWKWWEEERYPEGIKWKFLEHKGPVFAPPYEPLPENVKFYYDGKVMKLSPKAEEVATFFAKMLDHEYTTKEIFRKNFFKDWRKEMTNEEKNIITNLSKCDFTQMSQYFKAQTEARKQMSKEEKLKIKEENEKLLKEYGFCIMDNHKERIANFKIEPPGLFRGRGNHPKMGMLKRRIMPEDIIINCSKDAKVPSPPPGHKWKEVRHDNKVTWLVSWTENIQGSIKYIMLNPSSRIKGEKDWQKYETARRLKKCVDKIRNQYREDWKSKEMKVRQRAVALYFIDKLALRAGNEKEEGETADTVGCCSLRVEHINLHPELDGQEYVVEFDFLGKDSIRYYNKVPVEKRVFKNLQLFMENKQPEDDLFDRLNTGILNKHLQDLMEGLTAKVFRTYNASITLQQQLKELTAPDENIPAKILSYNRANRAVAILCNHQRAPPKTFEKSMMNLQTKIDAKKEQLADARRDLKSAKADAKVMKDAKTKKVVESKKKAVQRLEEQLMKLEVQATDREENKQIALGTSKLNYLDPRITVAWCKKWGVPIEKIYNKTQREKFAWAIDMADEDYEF

[3] = molecular target: T3, histidine-tRNA ligase (Jo-1) (UniProt P12081 2-509); experiment: AtheNA Multi-Lyte ANA, Ab at 25 ug/ml
T3 sequence (looked up): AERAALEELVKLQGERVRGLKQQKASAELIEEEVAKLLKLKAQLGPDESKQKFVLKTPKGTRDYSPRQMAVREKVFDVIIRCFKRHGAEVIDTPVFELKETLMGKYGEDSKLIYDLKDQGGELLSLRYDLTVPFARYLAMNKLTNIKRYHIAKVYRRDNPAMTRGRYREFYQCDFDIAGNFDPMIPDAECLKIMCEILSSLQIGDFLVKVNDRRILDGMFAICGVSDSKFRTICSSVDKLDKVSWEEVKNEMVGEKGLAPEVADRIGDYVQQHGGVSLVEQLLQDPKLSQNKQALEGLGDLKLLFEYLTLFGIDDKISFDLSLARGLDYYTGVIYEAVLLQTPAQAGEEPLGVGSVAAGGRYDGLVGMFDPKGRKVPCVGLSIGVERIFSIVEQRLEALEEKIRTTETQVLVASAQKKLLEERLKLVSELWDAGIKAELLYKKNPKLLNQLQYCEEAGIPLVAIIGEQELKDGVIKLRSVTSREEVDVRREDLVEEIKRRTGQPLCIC

centromere B (CentB) = molecular target: T4, centromere B (CentB) (UniProt P07199 2-599); experiment: AtheNA Multi-Lyte ANA, Ab at 50 ug/ml;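 also: monoclonal antibodies probed against a nuclear autoantigen panel (SSA, SSB, Sm, RNP, Scl-70, Jo-1, dsDNA, CentB, histones), with anti-HIV 4E10 and palivizumab as control antibodies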
T4 sequence (looked up): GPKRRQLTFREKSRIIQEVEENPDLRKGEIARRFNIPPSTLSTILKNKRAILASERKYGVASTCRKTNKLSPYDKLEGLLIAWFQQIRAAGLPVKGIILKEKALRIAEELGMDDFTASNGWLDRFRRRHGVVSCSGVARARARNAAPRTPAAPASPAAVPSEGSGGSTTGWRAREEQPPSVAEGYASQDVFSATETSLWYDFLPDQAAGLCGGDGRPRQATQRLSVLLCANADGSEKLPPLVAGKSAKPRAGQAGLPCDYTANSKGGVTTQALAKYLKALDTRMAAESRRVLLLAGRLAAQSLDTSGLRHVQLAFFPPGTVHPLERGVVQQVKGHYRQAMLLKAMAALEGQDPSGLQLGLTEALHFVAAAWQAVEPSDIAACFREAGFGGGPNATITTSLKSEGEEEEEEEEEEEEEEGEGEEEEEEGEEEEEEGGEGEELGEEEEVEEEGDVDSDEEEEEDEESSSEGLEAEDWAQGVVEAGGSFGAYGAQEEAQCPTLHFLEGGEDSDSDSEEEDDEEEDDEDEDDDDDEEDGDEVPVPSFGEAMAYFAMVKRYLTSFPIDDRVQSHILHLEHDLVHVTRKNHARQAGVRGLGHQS

[4] = molecular target: T5, 15-mer peptide GPPPPIDNGDITSFP (SEQ ID NO: 114) (human); experiment: assay and antigen not given; Example 10, epitope mapping on the 15-mer peptide
T5 construct: Immobilized for SPR; also called parent peptide
T5 peptide: GPPPPIDNGDITSFP

[5] = molecular target: T6, GPPPPIDNGDITSFP(GGGK-biotin); experiment: ELISA: biotinylated peptide captured on immobilized Neutravidin, antibody at 0.5 µg/ml, anti-human IgG-HRP/ABTS, OD 405 nm
T6 construct: also called biotinylated 15-mer peptide; biotinylated 19-mer
T6 peptide: GPPPPIDNGDITSFPGGGK(Biotin)

[6] = molecular target: T7, systemic lupus erythematosus autoantigen SSB (UniProt P05455 1-408, limits assumed); experiment: AtheNA Multi-Lyte ANA, Ab at 12.5 ug/ml;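 also: monoclonal antibodies screened for binding to a panel of nuclear autoantigens (SSA, SSB, Sm, RNP, Scl-70, Jo-1, dsDNA, CentB, histones), with anti-HIV and anti-RSV antibodies as controls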
T7 sequence (looked up): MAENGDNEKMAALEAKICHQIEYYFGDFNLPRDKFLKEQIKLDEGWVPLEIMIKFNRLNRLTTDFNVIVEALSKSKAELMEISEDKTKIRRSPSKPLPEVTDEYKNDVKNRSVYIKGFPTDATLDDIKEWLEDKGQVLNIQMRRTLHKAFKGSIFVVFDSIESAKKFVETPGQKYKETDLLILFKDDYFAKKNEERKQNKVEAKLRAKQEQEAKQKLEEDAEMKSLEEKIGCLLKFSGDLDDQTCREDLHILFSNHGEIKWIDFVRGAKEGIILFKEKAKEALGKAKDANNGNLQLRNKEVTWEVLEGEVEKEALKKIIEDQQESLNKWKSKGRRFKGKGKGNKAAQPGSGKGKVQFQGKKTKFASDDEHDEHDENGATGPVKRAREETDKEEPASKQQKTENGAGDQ

Binder | AtheNA signal [1] | AtheNA signal (Sm (sphingomyelin)) | AtheNA signal (ribonucleoprotein (RNP)) | AtheNA signal [2] | AtheNA signal [3] | AtheNA signal (centromere B (CentB)) | EC50 [4] [ng/mL] | binding result [5] | AtheNA signal [6]
Ab7957/293i (antibody, IgG1, V domains shown, Recombinant human antibody with IgG1 heavy chain backbone and kappa light chain constant; they begin at LVESGGG and MTQSP; also called Ab7957i; mAb 7957) VH: LVESGGGVVPPGKSLRLSCAASGFTFSLYGIHWVRQAPGKGLEWVAVISYDGNTKYYTDSVKGRFTISRDNAKNTIYLQMNSLRLDDTAVYYCAKGAANSATFDFWGRGTMVTVSS VL: MTQSPDSLTLSLGERATINCRSSRTVLYRSNNKNYLAWYQHKPGQPPKLLMSWASTRETGVPDRFSGSGSGTHFTLTITSLQPEDVAVYYCQQYYSPPWTFGQGTKVEIR | 11 | 3 | 4 | 2 | 4 | 4 | 9.08 | binds | –
Ab7962/293i (antibody, V domains shown, Recombinant human antibody with IgG1 heavy chain backbone and kappa light chain constant (IgM in the donor B cell); they begin at LVESGGG and MTQSL; also called clone 27; pH007962/pK005996) VH: LVESGGGLVQPGGSLRLSCAASGFTFSSYEMNWVRQAPGKGLEWVSYISSSGSTIYYADSVKGRFTISRDNAKNSLYLQMNSLRAEDTAVYYCARVEQLAPSPYMDVWGKGTTVTVSS VL: MTQSLDSLTVSLGERATINCKSSQSLLYTSNNKNYLAWYQQKSGQPPKLLIYWASIRDSGVPDRFSGSGSATDFTLTINNLQAEDVAVYFCQQYYKTPLTFGGGTKVEVR | – | – | – | – | – | 3 | – | – | 5
Ab7968 (antibody, IgG1, V domains shown, Recombinant human antibody with IgG1 heavy chain backbone and kappa light chain constant; they begin at LVESGGG and MTQSP; also called mAb 7968; mAb7968) VH: LVESGGGVVQPGRSLRLSCAASGFTFSRYGMHWVRQAPGKGLEWVAVMSYDGSTKYYADSVKGRFAISRDNPKNTLFLQMNSLRPDDTAVYYCAKGGAAAAVMDVWGKGTTVTVSS VL: MTQSPDSLTVSLGERATISCKSSQRLLYSSNNKNYLAWYQQKPGQPPKLLMYWASTRESGVPDRFSGSGSGTDFSLTISSLQAEDVAVYYCQQYYNPPWTFGQGTKVEVK | 8 | 5 | 8 | 3 | 3 | – | 7.98 | binds | 12
